Laboratory results published in the supplement of paper PMC9170038.

Test system: MS2 coat protein
Experiment: apparent KD of MS2 coat protein; designed switch direction (-1 OFF switch, 1 ON switch): -1; higher = weaker reporter binding
Procedure, shortened: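 The buffer was Tris-HCl pH 7.5 with KCl, MgCl2, BSA, DTT, tRNA and Tween-20. In it, SNAP-549-labelled MS2 coat protein was titrated in doubling steps from 0.7 or 1.5 nM to 3 µM over chip-bound RNA switches transcribed by stalled E. coli RNA polymerase on Illumina chips. Apparent KD is the per-design median over clusters of curve fits to normalised fluorescence.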

[1] = Eterna round: R95, input ligand: microRNA oligo, concentration not stated
[2] = input ligand: microRNA oligo, concentration not stated

Row | Sequence | apparent KD of MS2 coat protein (input ligand: FMN 200 uM) [nM] | apparent KD of MS2 coat protein (input ligand: none) [nM] | apparent KD of MS2 coat protein [2] [nM] | other results
1 | GGAGCGGAAGGAUAUGCUGCGGGAUUGCAUGGAAAGAAAAUACAUGAGGAUCACCCAUGUAGAAGGUCCGUGAA [Uslequ] (puzzle: Exclusion 2) |  |  |  | apparent KD of MS2 coat protein [1]: 24.8 nM
2 | GCCUGUAGUGUGAGGAUAUGCUGCUCCAUAGAGCAGCAGAAGGCACAUGAGGAUCACCCAUGUGAUAACAGGCA (Eterna round: R97, puzzle: Brourd's mod of Exclusion 4) | 443 | 151 |  | 
3 | AGCUAGUCAGGAUAUACGAAAAUGUCAGAAGCUGAGAAGGGACAUGAGGAUCACCCAUGUAGAAGGGACUAGCA [Diamond 37] (Eterna round: R96, puzzle: Exclusion 2) |  |  | 48.7 | 
4 | CGUAGCAAAGUGAGGAUAUCUAGAGCUUCGGCUCUAGAGAAGGCACAUGAGGAUCACCCAUGUGAUUAGCUACG [BmEx4/9-A1] (Eterna round: R97, puzzle: Brourd's mod of Exclusion 4) | 152 | 29.8 |  | 
5 | CAGCGGUGAGGAUAUACGUAGGUACAGAUCUGUGUGUUCCUACAUGAGGAUCACCCAUGUAGAAGGCAUGGCUG [LRO-Excl2-11] (puzzle: Exclusion 2) |  |  |  | apparent KD of MS2 coat protein [1]: 37.1 nM
6 | GCAAGUUUUUUGUUUUUUAACAUGAGGAUCACCCAUGUGCGGUUAUAGUGUGUGUGAUUAGGAUCUUGUGGUCUUAG [JR_SV3TOV1_Sub102] (puzzle: Sensor v3, turn-off variant 1) |  |  |  | apparent KD of MS2 coat protein (Eterna round: R95, input ligand: FMN 200 uM): 67.8 nM; apparent KD of MS2 coat protein [1]: 123 nM; apparent KD of MS2 coat protein (Eterna round: R95, input ligand: none): 98.9 nM
7 | AAAAGGCAGGGAGGAUAUGCUUACCUGGGUCGUCUUCGAACAUGAGGAUCACCCAUGUAGUCGACGCAGAAGGCCCUCAAAGCC [Mat - Exclusion NG 2 - Mod of JL - D59] (Eterna round: R96, puzzle: Exclusion NG 2) | 42.7 | 21.7 | 25.6 | 
8 | GGUUCCUGAGGAUAUACAUGAGGAUCACCCAUGUCUAUAUCAGCAGACGAUGACACAAGUAGAAGGUAGAGGGC [Eternabot (L2) Solution 48] (Eterna round: R97, puzzle: Exclusion 3) | 15 | 10.4 |  | 
9 | UUUUUUGGGCAAGGAUAUCCUGUGCGGUUCCGGCUCGUGUCUGUUACAUGAGGAUCACCCAUGUGGGAGAAGGUGCCUGUGGUU [Design 86] (Eterna round: R96, puzzle: Exclusion NG 2) | 183 | 43 | 37.3 | 
10 | UUGGCAGGUUUUUUGUUUGACAUGAGGAUCACCCAUGUUGCGUGGGUUGUGGGUGGGCGGUGUUUAUUUAUGGUUCU [-16.5, -38.6 kcal, A 12%] (Eterna round: R97, puzzle: Sensor, turn-off variant 1) | 43.1 | 48.4 |  | 
11 | CGUCGAAAUGUAGGAUAUCUGCACGAUUAGUGCAGAGAAGGACAUGAGGAUCACCCAUGUAGAUCACGACGAAUUAAUUUAAUU [ENG1/5-C1] (Eterna round: R96, puzzle: Exclusion NG 1) |  |  | 48.4 | 
12 | GAAGUAAAUGCAGGAUAUACCCACACAUGAGGAUCACCCAUGUAGUCUACUACGGUGUUCUCACGGUAGAAGGGCACAGCCGGA [Eternabot solution 31] (Eterna round: R96, puzzle: Exclusion NG 2) | 377 | 256 | 267 | 
13 | AUAUGUAACUAGGAUAUCAGCAUACUUCAAUGUUGAGAAGGAGUUACAUGAGGAUCACCCAUGUAUCCAACAUG [Exclusion 6 - 3] (Eterna round: R96, puzzle: Exclusion 6) | 73.3 | 67.1 | 56.7 | 
14 | AUAAAAGAGUUAGGAUAUCGGAAAGGAAGUGUACGAGAAGGAACGGUAUCCUCGGAAAGACAUGAGGAUCACCCAUGUAGAAAA [PowerStrip EXNG 1.6] (Eterna round: R96, puzzle: Exclusion NG 1) | 34.9 | 35.4 | 23.4 | 
15 | CUUGCAUUGCGAGGAUAUCCAACGUGGCUCGUGCUUACAUGAGGAUCACCCAUGUUCUACUAAAAGGAGAAGGCGCUUGGAGGA [Endixexebe] (Eterna round: R96, puzzle: Exclusion NG 2) | 48.8 | 25.5 | 16.8 | 
16 | AGAGUGUGAGGAUAUAUGGUAAAAGUGAAGAGAGAGGAGGAGUAGAAGGUACAUGAGGAUCACCCAUGUUUGGA [JR_Exclu4_Sub074] (puzzle: Exclusion 4) |  |  |  | apparent KD of MS2 coat protein [1]: 38.1 nM
17 | AACCCUCGUCAAGGAUAUACAUAGAAAAGCUUGGUAGAAGGUGACAUGAGGAUCACCCAUGUAUAAAGUUCGUCCAAUCGAACC [Diesisra] (Eterna round: R96, puzzle: Exclusion NG 1) | 139 | 110 | 80.9 | 
18 | AACAGUCUAGAGGAUAUGCUGGAUAAAUAUCUGGCAGAAGGCUGGACAUGAGGAUCACCCAUGUAAAUACUACC [Omei Ex6 A1b] (Eterna round: R97, puzzle: Exclusion 6) | 99.6 | 38.6 |  | 
19 | AGGUGUAGAGGAUAUCUAUACUCCCACAUGAGGAUCACCCAUGUCCUGGUCACCAAGGACGGAGAAGGCUACACCA [Omei Ex5 D22] (Eterna round: R97, puzzle: Exclusion 5) | 130 | 68.3 |  | 
20 | AUAUUGUGAGGAUAUGAACUUAGUAUCGAAAGAUUCUAAGUUCAGAAGGCACAUGAGGAUCACCCAUGUUUCUC [Long static hairpin v20] (Eterna round: R97, puzzle: Exclusion 4) | 808 | 81.9 |  | 
21 | UUCAUGUGAGGAUAUAGUACUCCUUCUAUUAUUAUUGAGUAUUAGAAGGCACAUGAGGAUCACCCAUGUAGUAC [Ex4 - 3 - 40] (puzzle: Exclusion 4) |  |  |  | apparent KD of MS2 coat protein [1]: 24.3 nM
22 | AGCUGUGGCCGAGGAUAUCACUACCGAUGGAAAACCAUCGGAACUCCACAUGAGGAUCACCCAUGUGAGAAGGCGGUCUCAGCA [Eli eng2 - 029] (Eterna round: R96, puzzle: Exclusion NG 2) | 24 | 15.7 | 11.2 | 
23 | GGACAGGGAGGAUAUACUUGAGGAUCACCCAAGUCGUAUAAUCGAUGAUCACGCCGAAGUAGAAGGCCCAAAAC [EX3 #82] (Eterna round: R97, puzzle: Exclusion 3) | 36.1 | 353 |  | 
24 | GUUAACGAUGAGGAUAUAUGAUAUCAAAGCAUCAUAGAAGGCAUCACAUGAGGAUCACCCAUGUGAUCUUCUUU [jl-ex6-4.10 ViennaUCT mod] (Eterna round: R97, puzzle: Exclusion 6) | 83.6 | 15.2 |  | 
25 | UUUAAACAUGAGGAUCACCCAUGUUAGGAUAUACGCAUGCAGACACACACGGAUGCAAGUAGAAGGAACCAUGC [Design #7] (Eterna round: R97, puzzle: Exclusion 1) | 23.6 | 22.9 |  | 
26 | AUUAAUCAGCAGGAUAUAAGUAUCUGAUGGUGGUUAGAAGGGCUGACAUGAGGAUCACCCAUGUGCUCUUCGUG [Beusbi] (puzzle: Exclusion 6) |  |  |  | apparent KD of MS2 coat protein [1]: 11.1 nM
